Source: patent publication US20240041976A1, “COMPOSITION AND USE” (priority 2020, published 2024)

Columns and labels:
Type in all cases: cell-based, Staphylococcus aureus
S. aureus ATTC 33591 = assay: Planktonic cell growth inhibition assay (MIC50, liquid culture)
Experimental: (§1) Growth inhibition assays were performed in 96-well microtiter plates as described previously (Chi and Holo, 2018, supra). Briefly, 135 μl of TSB were dispensed in each well of a microtiter plate (according to the number of bacterial strains tested) except in the wells of the first row. The antimicrobials were diluted in TSB to working concentrations in a final volume of 285 μl and dispensed in the wells of the first row. The working concentrations were 100 μg/μl for garvicin KS, 10 μg/μl for micrococcin P1 and 1 mg/ml for penicillin G. From the first row, 150 μl of the antimicrobials were then serially diluted (two-fold dilutions) in a sequential fashion until the last row of the plate. Finally, 15 μl of a fresh O/N culture of each strain were added in the appropriate wells to reach a final volume of 150 μl in each well. The plates were then incubated at 37° C. for 24 h. The growth inhibition was expressed as minimum inhibitory concentration (MIC50), which refers to the minimum concentration of the antimicrobial needed to reduce at least 50% of the microbial growth compared to the untreated control. The MIC50 was assessed by optical density readings at 600 nm (O.D.600).
(§2) Synergistic interactions between antimicrobials were determined using the fractional inhibition concentration (FIC). The FIC values were calculated as follows: the sum of the FIC =FICa+FICb+FICc, where the FICa means MIC of A in combination/MIC of A alone, FICb means MIC of B in combination/MIC of B, and FICc means MIC of C in combination/MIC of C alone. Effects were considered as synergistic if FIC was ≤0.5 for two components mixture and ≤0.75 for three components mixture.

S. aureus Newman = assay: as above
Experimental: as §1, §2

S.a. 3255 = assay: as above
Experimental: as §1, §2

S. aureus ATTC 29213 = assay: as above
Experimental: as §1, §2

S. aureus ATTC 10832 = assay: as above
Experimental: as §1, §2

S. aureus USA 300 = assay: as above
Experimental: as §1, §2

S. aureus LMG3265 = assay: AAMP assay (MIC), single components and formulation mixture; conditions: LMG3265
Experimental: (§3) Antimicrobial activity was measured using the AAMP assay (Wiegand et al., 2008, Nat. Protoc., Vol. 3(2), p 163-175).
(§4) Three-component synergy was assessed by mixing the three components (100 μg of PenG, 50 μg of GarKS and 2.5 μg of MP1) into one well of a microtiter plate, compared with activity of individual antimicrobials on the same plate. The fractional inhibition concentration (FIC) which was used to define synergy was calculated as set forth in Example 1.

MRSA USA-300 = assay: AAMP assay and checkerboard synergy; conditions: MRSA USA-300
Experimental: as §3
(§5) Synergy testing was done with a microtiter plate checkerboard assay as previously described (Orhan et al., 2005, J. Clin. Microbiol., Vol. 43(1), p 140-143). Briefly, equal amounts of antimicrobial A were applied on microtiter plate 1 in wells A1-H1 and then diluted two-fold to wells 2-12. Similarly, equal amounts of antimicrobial B were applied on microtiter plate 2 in wells A1-A12 and diluted two-fold in wells B-H. Volumes of 50 μl of antimicrobial A from each well of microtiter plate 1 were transferred into microtiter plate 3, except for wells H1-H12. Similarly, the same volumes were transferred from microtiter plate 2 into plate 3, except for wells A1-A8. A 100 μl volume of 25 times diluted ON bacterial culture of MRSA was transferred into each well of plate 3. A 50 μl volume of pure broth was added into each well in lines H1-H12 and A1-A8 which were used to estimate MIC values of pure substances (blank).
as §4

MRSA 43484 = assay: AAMP assay and checkerboard synergy; conditions: MRSA 43484
Experimental: as §3, §5, §4

MRSA ATCC 33591-lux = assay: AAMP assay and checkerboard synergy; conditions: MRSA ATCC 33591-lux
Experimental: as §3, §5, §4

[1] = tested on: three MRSA strains (ATCC33591-lux, USA-300 and MRSA 43484); assay: AAMP assay and checkerboard synergy, summary
Experimental: as §5, with “Briefly,” for “Synergy testing was done with a microtiter plate checkerboard assay as previously described (Orhan et al., 2005, J. Clin. Microbiol., Vol. 43(1), p 140-143). Briefly,”, “A 100 μl volume of 25 times diluted ON bacterial culture of MRSA was transferred into each well of plate 3.” left out
Three-component synergy was assessed by mixing the three components (100 μg of PenG, 50 μg of GarKS and 2.5 μg of MP1) into one well of a microtiter plate, compared with activity of individual antimicrobials on the same plate.

[2] = garvicin KS + micrococcin P1 + penicillin G
[3] = triple combination PenG, GarKS and MP1

B1: Garvicin KS: three-peptide leaderless bacteriocin (GarA, GarB, GarC; SEQ ID NO:6-8), peptides synthesized (peptide, listed as Lactococcus garvieae)
chain 1: MGAIIKAGAKIVGKGVLGGGASWLGWNVGEKIWK
chain 2: MGAIIKAGAKIIGKGLLGGAAGGATYGGLKKIFG
chain 3: MGAIIKAGAKIVGKGALTGGGVWLAEKLFGGK
MIC50 of the component in combination (S. aureus ATTC 33591; garvicin KS + micrococcin P1): 13 µg/mL | MIC50 of the component in combination (S. aureus ATTC 33591; [2]): 13 µg/mL | MIC50 of the component in combination (S. aureus ATTC 33591; garvicin KS + penicillin G): 50 µg/mL | MIC50 (S. aureus ATTC 33591; individual component): 50 µg/mL | MIC50 of the component in combination (S. aureus Newman; garvicin KS + micrococcin P1): 3.13 µg/mL | MIC50 of the component in combination (S. aureus Newman; [2]): <0.78 µg/mL | MIC50 of the component in combination (S. aureus Newman; garvicin KS + penicillin G): <0.78 µg/mL | MIC50 (S. aureus Newman; individual component): 25 µg/mL | MIC50 of the component in combination (S.a. 3255; garvicin KS + micrococcin P1): 0.013 mg/mL | MIC50 of the component in combination (S.a. 3255; [2]): <7.8 × 10^−4. mg/ml | MIC50 of the component in combination (S.a. 3255; garvicin KS + penicillin G): <0.00078 mg/mL | MIC50 (S.a. 3255; individual component): 25 µg/mL | MIC50 of the component in combination (S. aureus ATTC 29213; garvicin KS + micrococcin P1): 13 µg/mL | MIC50 of the component in combination (S. aureus ATTC 29213; [2]): 3.1 µg/mL | MIC50 of the component in combination (S. aureus ATTC 29213; garvicin KS + penicillin G): 13 µg/mL | MIC50 (S. aureus ATTC 29213; individual component): 25 µg/mL | MIC50 of the component in combination (S. aureus ATTC 10832; garvicin KS + micrococcin P1): 6.3 µg/mL | MIC50 of the component in combination (S. aureus ATTC 10832; [2]): <0.78 µg/mL | MIC50 of the component in combination (S. aureus ATTC 10832; garvicin KS + penicillin G): <0.78 µg/mL | MIC50 (S. aureus ATTC 10832; individual component): 25 µg/mL | MIC50 of the component in combination (S. aureus USA 300; garvicin KS + micrococcin P1): 1.56 µg/mL | MIC50 of the component in combination (S. aureus USA 300; [2]): 6.3 µg/mL | MIC50 of the component in combination (S. aureus USA 300; garvicin KS + penicillin G): 25 µg/mL | MIC50 (S. aureus USA 300; individual component): 25 µg/mL | MIC, single component (S. aureus LMG3265): 16 µg/mL | MIC, single antimicrobial (MRSA USA-300): 32 µg/mL | MIC, single antimicrobial (MRSA 43484): 32 µg/mL | MIC, single antimicrobial (MRSA ATCC 33591-lux): 32 µg/mL | reduction of MIC when combined ([1]; GarKS with Amp or PenG): 4 times | MIC of the component when GarKS and MP1 are combined ([1]; checkerboard assay): 8 µg/mL | MIC of the component when combined [1, 3]: 4 µg/mL | reduction of MIC when combined [1, 3]: about 8 times
